# Reference: PMC11618376 (Nature Communications, 2024)
# T1: Gdi1 (yeast, UniProt P39958 1-451)
# T1 sequence (looked up): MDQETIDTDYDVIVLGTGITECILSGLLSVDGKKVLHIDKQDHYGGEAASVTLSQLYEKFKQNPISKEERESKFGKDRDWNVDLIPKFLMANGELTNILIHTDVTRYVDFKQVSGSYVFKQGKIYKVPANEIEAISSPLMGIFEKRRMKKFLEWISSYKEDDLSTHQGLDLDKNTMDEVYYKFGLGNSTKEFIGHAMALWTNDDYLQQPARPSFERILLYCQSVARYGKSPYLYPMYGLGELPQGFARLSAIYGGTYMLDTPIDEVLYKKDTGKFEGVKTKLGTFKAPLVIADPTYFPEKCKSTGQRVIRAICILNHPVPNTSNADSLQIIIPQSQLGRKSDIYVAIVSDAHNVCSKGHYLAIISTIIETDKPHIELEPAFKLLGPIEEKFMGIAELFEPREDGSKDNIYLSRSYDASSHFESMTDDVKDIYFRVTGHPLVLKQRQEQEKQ
# Molecular target: T1, Gdi1
# Assay: SEC
binder,measurement,value
"prenylated Rab6-mantGDP (natural protein, S. cerevisiae, UniProt Q99260 1-215, looked up, C-terminal cysteines prenylated (geranylgeranyl)) MSRSGKSLTKYKIVFLGEQGVGKTSLITRFMYDTFDDHYQATIGIDFLSKTMYLDDKTIRLQLWDTAGQERFRSLIPSYIRDSRVAIIVYDITKRKSFEYIDKWIEDVKNERGDENVILCIVGNKSDLSDERQISTEEGEKKAKLLGAKIFMETSTKAGYNVKALFKKIAKSLPEFQNSESTPLDSENANSANQNKPGVIDISTAEEQEQSACQC",binding result,binds
